# Where no end group is shown, it is not given here. [ ]: non-standard residue; d: D form. pS = N[C@@H](COP(=O)(O)O)C(=O)O
# T1: GST-tagged N-motif (1-205) of the WSTF kinase domain (human, UniProt Q9UIG0 1-205)
# T1 construct: Made in E. coli; also called GST-tagged WAC N-; N-terminal motif; not shown: N-terminal GST tag of pGex6p
# T1 sequence: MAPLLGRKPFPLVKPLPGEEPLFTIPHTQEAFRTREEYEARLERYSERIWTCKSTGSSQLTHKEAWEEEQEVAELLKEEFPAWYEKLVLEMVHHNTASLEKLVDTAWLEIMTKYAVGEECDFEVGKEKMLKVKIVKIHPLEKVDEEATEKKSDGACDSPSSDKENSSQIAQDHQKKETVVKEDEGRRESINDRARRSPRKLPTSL
# What was measured:
# [1] = molecular target: T1, GST-tagged N-motif (1-205) of the WSTF …; assay: co-expression in E. coli, amylose affinity purification against the MBP tag, Superdex 200 gel filtration
# Procedure: For co-expression of the N- and C-motifs of WSTF, the recombinant plasmid vectors carrying the N- and C-motif constructs (above) were transformed into E. coli host strain Rosetta2 (DE3) (Novagen) for protein expression under triple antibiotic selection (ampicillin, kanamycin, and chloramphenicol) in LB medium. After overnight induction by 0.4 mM isopropyl β-D-thiogalactoside at 25° C., cells were harvested in buffer 0.4 M KCl, 20 mM Tris, pH 7.5. Co-expressed proteins were affinity purified using Amylose resin (New England Biolabs, MA) against the MBP tag. Maltose-eluted samples were purified through a Superdex 200 column (GE Healthcare) in the elution buffer (50 mM KCL, 20 mM Tris, pH 7.5). Most proteins were eluted in a single peak that contains GST-tagged […] with a stoichiometry of 1:1.
# [2] = molecular target: endogenous BRCA1 from 293T cell nuclear extracts (UniProt P38398 1-1863, limits assumed); assay: peptide pull-down from 293T nuclear extracts (FIG. 4I)
# Chain of endogenous BRCA1 from 293T cell nuclear extracts (P38398 whole entry): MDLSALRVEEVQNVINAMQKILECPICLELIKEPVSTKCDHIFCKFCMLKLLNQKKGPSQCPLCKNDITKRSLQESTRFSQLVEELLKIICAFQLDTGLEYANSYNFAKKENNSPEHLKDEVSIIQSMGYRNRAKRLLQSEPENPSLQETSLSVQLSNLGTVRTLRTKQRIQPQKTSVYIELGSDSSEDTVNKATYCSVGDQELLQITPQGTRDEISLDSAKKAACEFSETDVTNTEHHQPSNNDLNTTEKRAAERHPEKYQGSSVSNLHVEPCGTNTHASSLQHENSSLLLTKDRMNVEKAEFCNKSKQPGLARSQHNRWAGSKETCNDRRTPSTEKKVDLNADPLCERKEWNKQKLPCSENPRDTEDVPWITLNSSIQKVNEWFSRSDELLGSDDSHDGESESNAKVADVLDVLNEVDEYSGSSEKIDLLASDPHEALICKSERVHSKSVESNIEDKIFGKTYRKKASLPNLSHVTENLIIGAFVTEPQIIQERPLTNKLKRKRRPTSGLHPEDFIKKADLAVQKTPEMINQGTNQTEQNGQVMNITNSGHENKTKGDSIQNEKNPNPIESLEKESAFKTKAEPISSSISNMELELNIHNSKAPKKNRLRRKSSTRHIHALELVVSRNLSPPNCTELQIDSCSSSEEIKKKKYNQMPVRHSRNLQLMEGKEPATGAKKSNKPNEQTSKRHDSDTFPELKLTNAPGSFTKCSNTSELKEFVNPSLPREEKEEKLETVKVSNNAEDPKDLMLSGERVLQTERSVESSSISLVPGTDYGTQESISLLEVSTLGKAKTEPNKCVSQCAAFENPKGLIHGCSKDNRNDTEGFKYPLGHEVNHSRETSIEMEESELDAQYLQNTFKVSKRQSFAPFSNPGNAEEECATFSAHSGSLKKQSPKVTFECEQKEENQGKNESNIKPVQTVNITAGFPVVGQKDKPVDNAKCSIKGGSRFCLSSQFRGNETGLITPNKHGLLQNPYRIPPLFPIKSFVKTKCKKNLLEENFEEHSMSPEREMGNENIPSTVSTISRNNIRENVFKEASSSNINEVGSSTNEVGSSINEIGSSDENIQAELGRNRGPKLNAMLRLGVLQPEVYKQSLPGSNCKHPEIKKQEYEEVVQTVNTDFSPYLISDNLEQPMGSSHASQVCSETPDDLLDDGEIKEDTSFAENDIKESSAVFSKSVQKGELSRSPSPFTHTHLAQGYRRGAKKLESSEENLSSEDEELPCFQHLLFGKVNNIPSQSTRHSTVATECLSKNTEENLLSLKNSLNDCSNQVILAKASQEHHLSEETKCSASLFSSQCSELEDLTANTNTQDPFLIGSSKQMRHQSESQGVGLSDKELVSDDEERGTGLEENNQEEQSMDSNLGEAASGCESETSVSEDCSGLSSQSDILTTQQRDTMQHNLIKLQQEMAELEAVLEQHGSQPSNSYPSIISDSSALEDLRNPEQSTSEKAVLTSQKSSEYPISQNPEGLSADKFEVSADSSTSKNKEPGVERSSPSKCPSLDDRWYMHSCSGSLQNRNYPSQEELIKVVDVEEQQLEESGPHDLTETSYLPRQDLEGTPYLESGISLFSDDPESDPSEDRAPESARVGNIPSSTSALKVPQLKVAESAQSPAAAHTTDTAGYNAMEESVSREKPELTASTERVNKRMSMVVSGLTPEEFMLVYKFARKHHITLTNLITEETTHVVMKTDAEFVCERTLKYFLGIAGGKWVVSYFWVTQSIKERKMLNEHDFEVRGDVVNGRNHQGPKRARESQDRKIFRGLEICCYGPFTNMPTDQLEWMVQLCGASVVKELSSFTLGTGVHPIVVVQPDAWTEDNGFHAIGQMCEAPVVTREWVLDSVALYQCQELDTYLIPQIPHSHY
binding result [1],binding result [2],Binder
binds,,"MBP-tagged C-motif (208-345) of the WSTF kinase domain (other, Made in E. coli; also called MBP-tagged WAC C-motif; not shown: N-terminal MBP tag of a modified pRSFDuet-1) GERKWAPPKFLPHKYDVKLQNEDKIISNVPADSLIRTERPPNKEIVRYFIRHNALRAGTGENAPWVVEDELVKKYSLPSKFSDFLLDPYKYMTLNPSTKRKNTGSPDRKPSKKSKTDNSSLSSPLNPKLWCHVHLKKS"
,no binding,"CPSGGKKATQA[pS]QEY (Pull-down peptide; also called Ser139(ph) peptides; H2A.X peptides singly phosphorylated on Ser139) [H2A.X peptide S139(ph), N-CPSGGKKATQApSQEY-C]"

# — patent US20100080799A1 (ROCKEFELLER UNIVERSITY, published 2010)
